Measured values published in patent US20120231014A1.

Tests used:
[1] = molecular target: PTPσ-Fc fusion protein (recombinant mouse PTPσ extracellular domain, short isoform, fused to Fc) (mouse) (UniProt B0V2N1); experiment: cell-free plate assay: PTPσ-Fc on protein A plates, biotinylated aggrecan detected with streptavidin-AP, hyperbolic curve fit
[2] = molecular target: PTPσ-Fc fusion protein (recombinant mouse PTPσ extracellular domain, short isoform, fused to Fc) (mouse) (UniProt B0V2N1); experiment: cell-free plate assay: PTPσ-Fc on protein A plates, increasing Ncn-AP, bound AP activity, Scatchard analysis

| Kd [1] | Kd [2] | Substance |
| --- | --- | --- |
| 0.019 µM | – | biotinylated purified aggrecan (bovine; Sigma) (from UniProt P13608 17-2364) |
| – | 0.011 µM | Ncn-AP fusion protein (mouse neurocan amino acids 1-963 fused to placental alkaline phosphatase) (from UniProt P55066 23-963; P05187 23-511) |
